In US7019123 one finds Ki and fold higher Ki than aprotinin data, which are given here for four substances.

One experiment has as its target bovine trypsin (bovine) (UniProt P00760). In words: enzyme inhibition; trypsin 48.5 pM.
The target in a further experiment is human plasmin (human) (UniProt P00747). The experiment is described as follows: enzyme inhibition; human plasmin 50 pM.
Experiment [1] concerns the target human plasma kallikrein (human) (UniProt P03952). In words: enzyme inhibition; apparent Ki.
Experiment [2] addresses bovine pancreatic kallikrein (bovine). In words: enzyme inhibition; bovine pancreatic kallikrein 92.0 pM.
The target is the same in experiment [3]. The experiment is described as follows: enzyme inhibition; comparison of Ki values with aprotinin.
For experiment [4] the target is unchanged. The experiment is described as follows: enzyme inhibition, tight-binding fit; bovine pancreatic kallikrein 92 pM, PFR-AMC.

Chain of human plasmin (human) (P00747 97-810 limits assumed): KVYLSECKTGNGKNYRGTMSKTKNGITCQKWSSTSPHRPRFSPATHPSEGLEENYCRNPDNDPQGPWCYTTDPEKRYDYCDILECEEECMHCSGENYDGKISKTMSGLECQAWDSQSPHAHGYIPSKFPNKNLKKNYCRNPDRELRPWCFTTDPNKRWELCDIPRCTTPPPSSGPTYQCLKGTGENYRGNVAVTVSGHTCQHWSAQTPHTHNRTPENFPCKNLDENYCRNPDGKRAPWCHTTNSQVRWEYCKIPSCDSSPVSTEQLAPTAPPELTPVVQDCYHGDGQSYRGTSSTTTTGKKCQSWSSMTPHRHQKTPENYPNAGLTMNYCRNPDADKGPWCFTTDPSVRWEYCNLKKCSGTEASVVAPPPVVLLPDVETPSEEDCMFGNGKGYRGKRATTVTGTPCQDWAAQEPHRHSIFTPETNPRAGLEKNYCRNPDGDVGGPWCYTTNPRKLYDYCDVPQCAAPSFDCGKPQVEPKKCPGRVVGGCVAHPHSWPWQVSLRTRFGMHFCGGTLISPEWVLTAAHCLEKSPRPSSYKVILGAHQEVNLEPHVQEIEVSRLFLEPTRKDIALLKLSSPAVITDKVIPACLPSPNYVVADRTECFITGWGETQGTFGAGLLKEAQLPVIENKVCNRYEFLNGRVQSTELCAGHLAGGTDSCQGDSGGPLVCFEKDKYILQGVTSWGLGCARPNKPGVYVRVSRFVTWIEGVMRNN
Chain of human plasma kallikrein (human) (P03952 20-638 limits assumed): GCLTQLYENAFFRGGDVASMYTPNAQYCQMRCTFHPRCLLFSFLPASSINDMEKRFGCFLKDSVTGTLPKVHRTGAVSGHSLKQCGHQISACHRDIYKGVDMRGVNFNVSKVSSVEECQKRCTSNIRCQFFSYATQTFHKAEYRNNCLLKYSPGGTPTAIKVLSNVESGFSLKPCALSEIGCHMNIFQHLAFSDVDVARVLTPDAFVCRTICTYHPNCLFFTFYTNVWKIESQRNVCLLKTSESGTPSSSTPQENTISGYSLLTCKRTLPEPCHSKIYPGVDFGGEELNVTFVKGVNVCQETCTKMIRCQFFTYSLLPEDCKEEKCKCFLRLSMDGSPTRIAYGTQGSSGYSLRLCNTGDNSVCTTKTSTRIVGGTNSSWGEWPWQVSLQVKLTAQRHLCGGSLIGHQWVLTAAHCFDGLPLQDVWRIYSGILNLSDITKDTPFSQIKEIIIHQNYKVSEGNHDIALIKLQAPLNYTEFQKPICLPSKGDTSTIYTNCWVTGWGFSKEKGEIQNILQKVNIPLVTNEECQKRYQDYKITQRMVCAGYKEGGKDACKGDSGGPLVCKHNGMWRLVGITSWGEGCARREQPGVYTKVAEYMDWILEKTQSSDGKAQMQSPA
Chain of bovine trypsin (bovine) (P00760 24-246): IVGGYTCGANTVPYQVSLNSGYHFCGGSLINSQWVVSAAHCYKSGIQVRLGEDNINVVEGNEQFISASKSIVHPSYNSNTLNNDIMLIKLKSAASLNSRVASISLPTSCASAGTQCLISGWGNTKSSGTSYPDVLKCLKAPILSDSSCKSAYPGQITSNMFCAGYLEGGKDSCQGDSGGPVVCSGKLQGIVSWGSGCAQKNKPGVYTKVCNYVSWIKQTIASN

As to “native human placental bikunin isolated from placenta (from UniProt O43291 28-203)”, the Ki with bovine trypsin (bovine) came out at 0.13 nM; with human plasmin (human), 1.9 nM.
For “recombinant placental bikunin (102-159) expressed in yeast SC101 (from UniProt O43291 129-186)”, in experiment [1], the Ki was 0.35 nM.
“synthetic placental bikunin (7-64), first preparation (from UniProt O43291 34-91)” displayed a Ki in experiment [2] of 0.4 nM.
Consider “synthetic placental bikunin (102-159) (from UniProt O43291 129-186)”, for which the Ki in experiment [2] and in experiment [4] was 0.4 nM each time. In experiment [3], this substance displayed a fold higher Ki than aprotinin of 20 fold.
